# T1: soluble human EPO receptor (human, UniProt P19235 25-250, limits assumed)
# T1 construct: Only called 'soluble'
# T1 sequence (looked up): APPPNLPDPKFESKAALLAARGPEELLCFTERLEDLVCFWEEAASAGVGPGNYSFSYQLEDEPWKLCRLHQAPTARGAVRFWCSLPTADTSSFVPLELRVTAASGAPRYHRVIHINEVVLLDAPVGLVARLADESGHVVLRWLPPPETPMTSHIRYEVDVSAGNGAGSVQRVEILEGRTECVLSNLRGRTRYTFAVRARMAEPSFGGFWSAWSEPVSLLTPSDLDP
# T2: biotinylated EpoR (Abbott CHO cell derived ref.#RB69084:4) (UniProt P19235 25-250, limits assumed, biotinylated with biotin-NHS (sites not given))
# T2 construct: also called biotin EpoR; biotin-EpoR
# T2 sequence (looked up): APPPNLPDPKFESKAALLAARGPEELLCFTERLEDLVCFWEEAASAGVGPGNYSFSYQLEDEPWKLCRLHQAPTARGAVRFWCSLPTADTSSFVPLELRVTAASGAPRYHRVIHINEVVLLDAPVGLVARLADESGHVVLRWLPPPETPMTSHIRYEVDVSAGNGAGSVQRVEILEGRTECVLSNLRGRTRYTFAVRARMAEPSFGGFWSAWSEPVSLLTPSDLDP
# Molecular target: T1, soluble human EPO receptor
# Assay: SPR (Biacore 2000), antibody immobilised on the chip, soluble receptor 10-200 nM injected
# Experimental: Immobilizations of antibody were performed using the default immobilization program in the Biacore software package. Antibodies were diluted to 10 ug/mL in the supplied acetate buffers to prescreen for the appropriate pH at which to conduct the immobilizations. For immobilizations, antibodies were diluted into the appropriate acetate buffer (10 mM acetate pH 4.0) and coupled directly to the chip surface using standard EDC chemistry at three different protein levels (500, 1000, and 1500 RU). The fourth flow cell was mock coupled with EDC to cap the carboxyl groups and provide a background surface as a negative control.
# Binding studies were performed by successive injections of varying concentrations of soluble human EPO receptor over the chip surface (500 RU immobilized protein). […]
# Data were fit to the models available in the BiaEvaluation 3.0.2 software package (Biacore). […] Dissociation constants were calculated directly from fitting to the Langmuir binding model. For the bivalent analyte model, the dissociation constants were calculated indirectly using the calculated values for the kinetic dissociation and kinetic association constants, kd and kₐ.
row,Binder,Kd [nM]
1,"Ab12 (human anti-EPO-R antibody expressed by the cell line designated ABT2-SCX-012) (antibody, human IgG2, V domains shown, also called AB-ABT2-XG2-012; ABT2-XG2-012) VH: QVQLQESGPGLVKPSETLSLTCTVSGASISSYYWSWIRQPPGKGLEWIGYIYYSGSTNYNPSLKSRVTISVDTSKNQFSLKLRSVTAADTAVYYCARERLGIGDYWGQGTLVTVSS VL: DIQLTQSPSSLSASVGDRVTITCRASQGIRNDLGWYQQKPGKAPKRLIYAASSLQSGVPSRFSGSGSGTEFTLTISSLQPEDFATYYCLQHNTYPPTFGQGTKVEIK",17.5
2,"Ab198 (human anti-EPO-R antibody expressed by the cell line designated ABT2-SCX-198) (antibody, human IgG2, V domains shown) VH: QVQLVESGGGVVQPGRSLRLSCVASGFTFSSYGMHWVRQAPGKGLEWVAVISYDGSNKYYADSVKGRFTISRDNSKNTLYLQMNSLRVEDTAVYYCARDHGGRYVYDYGMDVWGQGTTVTVSS VL: DIQMTQSPSSVSASIGDRVSITCRASQGISSWLAWYQQKPGKAPTLLIYAASTLQRGVPSRFSGSGSGTDFTLTISSLQPEDFATYFCQQANSFPFTFGPGTKVDIK",13.9

# Molecular target: T2, biotinylated EpoR (Abbott CHO cell …)
# Assay: ELISA, biotin-EpoR on streptavidin plate, HEK 293 supernatant titrated 1:2
# Experimental: The ELISA for antigen specific antibody secretion was performed as follows. Control plates were coated with […] Goat anti-human IgG H+L O/N. For the binding plates, biotin-EpoR (0.7 mcg/mL) was coated onto streptavadin 96 well plates (Sigma, St Louis, Mo.) for one hour at room temperature. The plates were washed five times with dH₂O. Recombinant antibodies were titrated 1:2 for 7 wells from the undiluted minilipofection supernatant. The plates were washed five times with dH₂O. A goat anti-human IgG Fc-specific HRP-conjugated antibody was added at a final concentration of 1 ug/mL for 1 hour at RT for the secretion and the binding ELISA. The plates were washed five times with dH₂O. The plates were developed with the addition of TMB chromogenic substrate (KPL, Gaithersburg, Md.) for 30 minutes and the ELISA was stopped by the addition of 1 M phosphoric acid. Each ELISA plate was analyzed to determine the optical density of each well at 450 nm.
row,Binder,Binding (dilution of the supernatant in ELISA)
1,"Ab12 (human anti-EPO-R antibody expressed by the cell line designated ABT2-SCX-012) (antibody, human IgG2, V domains shown, also called AB-ABT2-XG2-012; ABT2-XG2-012) VH: QVQLQESGPGLVKPSETLSLTCTVSGASISSYYWSWIRQPPGKGLEWIGYIYYSGSTNYNPSLKSRVTISVDTSKNQFSLKLRSVTAADTAVYYCARERLGIGDYWGQGTLVTVSS VL: DIQLTQSPSSLSASVGDRVTITCRASQGIRNDLGWYQQKPGKAPKRLIYAASSLQSGVPSRFSGSGSGTEFTLTISSLQPEDFATYYCLQHNTYPPTFGQGTKVEIK",> 64 1:n dilution of supernatant
2,"human anti-EPO-R antibody expressed by the cell line designated ABT2-SCX-060 (antibody, human IgG2, V domains shown, also called Ab60) VH: QVQLVESGGGVVQPGRSLRLSCAASGFTFSSYGMHWVRQAPGKGLEWVAVISYDGSNKYYADSVKGRFTISRDNSKNTLYLQMNSLRVEDTAVYYCARDHGGRYVYDYGMDVWGQGTTVTVSS VL: DIQMTQSPSSVSASVGDRVSITCRASQGISSWLAWYQQKPGKAPTLLIYAASSLQRGVPSRFSGSGSGTDFTLTISSLQPEDFATYFCQQANSFPFTFGPGTKVDIK",> 64 1:n dilution of supernatant
3,"human anti-EPO-R antibody expressed by the cell line designated ABT2-SCX-022 (antibody, human IgG2, V domains shown, also called Ab22) VH: QVQLVESGGGVVQPGRSLRLSCAASGFTFSSYGMHWVRQAPGKGLEWVVVISYDGSNKYYADSVKGRFTISRDNSKNTLYLQMNSLRVEDTAVYYCARDHGGRYVYDYGMDVWGQGTTVTVSS VL: DIQMTQSPSSVSASVGDRVSITCRASQGISSWLAWYQQKPGKAPTLLIYAASSLQRGVPSRFSGSGSGTDFTLTISSLQPEDFATYFCQQANSFPFTFGPGTKVDIK",> 64 1:n dilution of supernatant
4,"human anti-EPO-R antibody expressed by the cell line designated ABT2-SCX-003 (antibody, human IgG2, V domains shown, also called Ab3) VH: QVQLVESGGGVVQPGRSLRLSCAASGFTFSSYGMHWVRQAPGKGLEWVAVISYDGSNKYYADSVKGRFTISRDNSKNTLYLQMNSLRVEDTAVYYCARDHGGRYVYDYGMDVWGQGTTVTVSS VL: DIQMTQSPSSVSASVGDRVSITCRASQGISSWLVWYQQKPGKAPALLIYAASSLQRGVPSRFSGSGSGTDFTLTISSLQPEDFATYFCQQANSFPFTFGPGTKVDIK",> 64 1:n dilution of supernatant
5,"human anti-EPO-R antibody expressed by the cell line designated ABT2-SCX-135 (antibody, human IgG2, V domains shown, also called Ab135) VH: QVQLVESGGGVVQPGRSLRLSCAASGFTFSSYGMHWVRQAPGKGLEWVAVISYDGSNKYYADSVKGRFTISRDNSKNTLYLQMNSLRVEDTAVYYCARDHGGRYVYDYGMDVWGQGTTVTVSS VL: DIQMTQSPSSVSTSVGDRVSITCRASQGIGSWLAWYQQKPGQAPTLLIYAASSLQRGVPSRFSGSGSGTDFTLTINSLQPEDFATYFCQQANSFPFTFGPGTKVDVK",4 1:n dilution of supernatant
6,"human anti-EPO-R antibody expressed by the cell line designated ABT2-SCX-267 (antibody, human IgG2, V domains shown, also called Ab267) VH: QVQLVESGGGVVQPGRSLRLSCAASGFTFSSYGMHWVRQAPGKGLEWVAVISYDGSNKYYADSVKGRFTISRDNSKNTLYLQMNSLRVEDTAVYYCAKDHGGRYVYDYGMDVWGQGTTVTVSS VL: DIQMTQSPSSVSASVGDRVSITCRASQGIGSWLAWYQQKPGQAPTLLIYAASSLQRGVPSRFSGSGSGTDFTLTINSLQPEDFATYFCQQANSFPFTFGPGTKVDVK",> 64 1:n dilution of supernatant
7,"human anti-EPO-R antibody expressed by the cell line designated ABT2-SCX-102 (antibody, human IgG2, V domains shown, also called Ab102) VH: QVQLVESGGGVVQPGRSLRLSCAASGFTFSSYGMHWVRQAPGKGLEWVAVISYDGSNKYYADSVKGRFTISRDNSKNTLYLQMNSLRVEDTAVYYCARDHGGRYVYDYGMDVWGQGTTVTVSS VL: DIQMTQSPSSVSASVGDRVSITCRASQGISSWLAWYQQKPGKAPKRLIYAASSLQRGVPSRFSGSGSGTDFTLTISSLQPEDFATYFCQQANSFPFTFGPGTKVDIK",> 64 1:n dilution of supernatant
8,"Ab198 (human anti-EPO-R antibody expressed by the cell line designated ABT2-SCX-198) (antibody, human IgG2, V domains shown) VH: QVQLVESGGGVVQPGRSLRLSCVASGFTFSSYGMHWVRQAPGKGLEWVAVISYDGSNKYYADSVKGRFTISRDNSKNTLYLQMNSLRVEDTAVYYCARDHGGRYVYDYGMDVWGQGTTVTVSS VL: DIQMTQSPSSVSASIGDRVSITCRASQGISSWLAWYQQKPGKAPTLLIYAASTLQRGVPSRFSGSGSGTDFTLTISSLQPEDFATYFCQQANSFPFTFGPGTKVDIK",> 64 1:n dilution of supernatant
9,"human anti-EPO-R antibody expressed by the cell line designated ABT2-SCX-145 (antibody, human IgG2, V domains shown, also called Ab145) VH: QVQLVESGGGVVQPGRSLRLSCAASGFTFSSYGMHWVRQAPGKGLEWVAVISYDGSNKYYADSVKGRFTISRDNSKNTLYLQMNSLRVEDTAVYYCARDHGGRYVYDYGMDVWGQGTTVTVSS VL: DIQMTQSPSSVSASVGDRVSITCRASQGIGSWLAWYQQKPGQAPTLLIYAASSLQRGVPSRFSGSGSGTDFTLTINSLQPEDFATYFCQQANSFPFTFGPGTKVDVK",> 64 1:n dilution of supernatant
10,"human anti-EPO-R antibody expressed by the cell line designated ABT2-SCX-254 (antibody, human IgG2, V domains shown, also called Ab254) VH: QVQLVESGGGVVQPGRSLRLSCAASGFTFSSYGMHWVRQAPGKGLEWVAVIWFDGNNKFYADSVKGRFTISRDNSKNTLYLQMNSLRVEDTAVYYCARGGSYWDYWGQGTLVTVSS VL: DIVMTQTPLFSFVMIGQPASISCRSRQSLVHSDGNTYLNWLQQRPGQPPRLLIYKTSNRFSGVPDRFSGSGAGTDFTLKISRVEAEDVGVYYCMQATQFPITFGQGTRLEIK",8 1:n dilution of supernatant
11,"human anti-EPO-R antibody expressed by the cell line designated ABT2-SCX-054 (antibody, V domains shown, also called ABT2-SCX-54; Ab54) VH: QVQLVESGGGVVQPGRSLRLSCAASGFTFSKYGMHWVRQAPGKGLEWVAVLWYDGSNKYYADSVKGRFTISRDNSKNTLYLQMNSLRAEDTAVYYCARGPYYFDYWGQGTLVTVSS VL: not shown",> 64 1:n dilution of supernatant

# Reference: US20040175379A1 (AbbVie / Abbott, published 2004)
